Source: the supplement of paper PMC10567573

B1: TFE3 (parent)
chain: FHLGLEDILMEEEEGVVGGLSGGA

Variants of: B1
Experiment: protein stability index of a GFP-peptide fusion (GPS, HEK-293T) (PSI 1-6); higher = more stable
Conditions: c terminus: a fixed tail appended
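Note: lentivirally expressed fusions sorted by FACS into six bins by GFP to DsRed ratio, PSI derived from sequencing read proportions per bin multiplied by bin number.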

Variant	protein stability index
FHLGLEDILMEECEGVVGGLSGGA [E13C]	2.16
FHLGLEDILMEEDEGVVGGLSGGA [E13D]	3.3
FHLGLEDILMEEFEGVVGGLSGGA [E13F]	1.84
FHLGLEDILMEEGEGVVGGLSGGA [E13G]	2.58
FHLGLEDILMEEHEGVVGGLSGGA [E13H]	3.19
FHLGLEDILMEEIEGVVGGLSGGA [E13I]	1.88
FHLGLEDILMEEKEGVVGGLSGGA [E13K]	3.41
FHLGLEDILMEELEGVVGGLSGGA [E13L]	2.37
FHLGLEDILMEEMEGVVGGLSGGA [E13M]	2.15
FHLGLEDILMEENEGVVGGLSGGA [E13N]	3.55
FHLGLEDILMEEPEGVVGGLSGGA [E13P]	2.41
FHLGLEDILMEEQEGVVGGLSGGA [E13Q]	3.4
FHLGLEDILMEEREGVVGGLSGGA [E13R]	3.1
FHLGLEDILMEESEGVVGGLSGGA [E13S]	3.34
FHLGLEDILMEETEGVVGGLSGGA [E13T]	3.34
FHLGLEDILMEEVEGVVGGLSGGA [E13V]	2.46
FHLGLEDILMEEWEGVVGGLSGGA [E13W]	2.18
FHLGLEDILMEEYEGVVGGLSGGA [E13Y]	2.11
FHLGLEDILMEEEAGVVGGLSGGA [E14A]	3.17
FHLGLEDILMEEECGVVGGLSGGA [E14C]	2.73
FHLGLEDILMEEEDGVVGGLSGGA [E14D]	3.82
FHLGLEDILMEEEFGVVGGLSGGA [E14F]	1.78
FHLGLEDILMEEEGGVVGGLSGGA [E14G]	2.94
FHLGLEDILMEEEHGVVGGLSGGA [E14H]	2.54

Variant	protein stability index
FHLGLEDILMEEEIGVVGGLSGGA [E14I]	2.22
FHLGLEDILMEEEKGVVGGLSGGA [E14K]	3.34
FHLGLEDILMEEELGVVGGLSGGA [E14L]	2.67
FHLGLEDILMEEEMGVVGGLSGGA [E14M]	2.27
FHLGLEDILMEEENGVVGGLSGGA [E14N]	2.72
FHLGLEDILMEEEPGVVGGLSGGA [E14P]	3.53
FHLGLEDILMEEEQGVVGGLSGGA [E14Q]	2.98
FHLGLEDILMEEERGVVGGLSGGA [E14R]	3.55
FHLGLEDILMEEESGVVGGLSGGA [E14S]	2.83
FHLGLEDILMEEETGVVGGLSGGA [E14T]	3.25
FHLGLEDILMEEEVGVVGGLSGGA [E14V]	2.53
FHLGLEDILMEEEWGVVGGLSGGA [E14W]	1.43
FHLGLEDILMEEEYGVVGGLSGGA [E14Y]	2.39
FHLGLEDILMEEEEAVVGGLSGGA [G15A]	4.1
FHLGLEDILMEEEECVVGGLSGGA [G15C]	3.24
FHLGLEDILMEEEEDVVGGLSGGA [G15D]	4.19
FHLGLEDILMEEEEEVVGGLSGGA [G15E]	4.39
FHLGLEDILMEEEEFVVGGLSGGA [G15F]	2.42
FHLGLEDILMEEEEHVVGGLSGGA [G15H]	3.25
FHLGLEDILMEEEEIVVGGLSGGA [G15I]	2.9
FHLGLEDILMEEEEKVVGGLSGGA [G15K]	4.11
FHLGLEDILMEEEELVVGGLSGGA [G15L]	3.1
FHLGLEDILMEEEEMVVGGLSGGA [G15M]	3.05
FHLGLEDILMEEEENVVGGLSGGA [G15N]	3.84

Variant	protein stability index
FHLGLEDILMEEEEPVVGGLSGGA [G15P]	3.59
FHLGLEDILMEEEEQVVGGLSGGA [G15Q]	4.23
FHLGLEDILMEEEERVVGGLSGGA [G15R]	4.03
FHLGLEDILMEEEESVVGGLSGGA [G15S]	3.92
FHLGLEDILMEEEETVVGGLSGGA [G15T]	3.51
FHLGLEDILMEEEEVVVGGLSGGA [G15V]	3.64
FHLGLEDILMEEEEWVVGGLSGGA [G15W]	2.3
FHLGLEDILMEEEEYVVGGLSGGA [G15Y]	3.04
FHLGLEDILMEEEEGAVGGLSGGA [V16A]	3.87
FHLGLEDILMEEEEGCVGGLSGGA [V16C]	4.07
FHLGLEDILMEEEEGDVGGLSGGA [V16D]	4.07
FHLGLEDILMEEEEGEVGGLSGGA [V16E]	4.3
FHLGLEDILMEEEEGFVGGLSGGA [V16F]	2.83
FHLGLEDILMEEEEGGVGGLSGGA [V16G]	3.97
FHLGLEDILMEEEEGHVGGLSGGA [V16H]	3.76
FHLGLEDILMEEEEGIVGGLSGGA [V16I]	4.12
FHLGLEDILMEEEEGLVGGLSGGA [V16L]	2.77
FHLGLEDILMEEEEGMVGGLSGGA [V16M]	3.58
FHLGLEDILMEEEEGNVGGLSGGA [V16N]	3.68
FHLGLEDILMEEEEGPVGGLSGGA [V16P]	3.08
FHLGLEDILMEEEEGQVGGLSGGA [V16Q]	4.29
FHLGLEDILMEEEEGRVGGLSGGA [V16R]	3.52
FHLGLEDILMEEEEGSVGGLSGGA [V16S]	3.82
FHLGLEDILMEEEEGTVGGLSGGA [V16T]	4

Variant	protein stability index
FHLGLEDILMEEEEGWVGGLSGGA [V16W]	3.33
FHLGLEDILMEEEEGYVGGLSGGA [V16Y]	3.34
FHLGLEDILMEEEEGVAGGLSGGA [V17A]	3.54
FHLGLEDILMEEEEGVCGGLSGGA [V17C]	4.01
FHLGLEDILMEEEEGVDGGLSGGA [V17D]	4.44
FHLGLEDILMEEEEGVEGGLSGGA [V17E]	3.64
FHLGLEDILMEEEEGVFGGLSGGA [V17F]	2.88
FHLGLEDILMEEEEGVGGGLSGGA [V17G]	3.15
FHLGLEDILMEEEEGVHGGLSGGA [V17H]	3.7
FHLGLEDILMEEEEGVIGGLSGGA [V17I]	3.92
FHLGLEDILMEEEEGVKGGLSGGA [V17K]	3.77
FHLGLEDILMEEEEGVLGGLSGGA [V17L]	3.61
FHLGLEDILMEEEEGVMGGLSGGA [V17M]	3.46
FHLGLEDILMEEEEGVNGGLSGGA [V17N]	4.76
FHLGLEDILMEEEEGVPGGLSGGA [V17P]	3.63
FHLGLEDILMEEEEGVQGGLSGGA [V17Q]	3.69
FHLGLEDILMEEEEGVRGGLSGGA [V17R]	3.8
FHLGLEDILMEEEEGVSGGLSGGA [V17S]	4.13
FHLGLEDILMEEEEGVTGGLSGGA [V17T]	3.95
FHLGLEDILMEEEEGVWGGLSGGA [V17W]	2.72
FHLGLEDILMEEEEGVYGGLSGGA [V17Y]	3.03
FHLGLEDILMEEEEGVVAGLSGGA [G18A]	3.64
